Experiments:
[1] = target: the molecule itself; experiment: SEC-MALS; phosphorylated HopQ1 mixed with Nt14-3-3a at a 1:2 mass ratio, 2 h at 4°C; Superdex 200 10/300GL, 100 mM Tris-HCl pH 8.0, 150 mM NaCl, 5 mM DTT
[2] = target: T1, HopQ1-6xHis, in vitro phosphorylated by AtCPK3 (Pseudomonas syringae pv. phaseolicola …, UniProt Q48BD8 1-447, in vitro phosphorylated by AtCPK3; phosphorylated residues of this sample not given); experiment: as above; conditions: both partners purified
T1 construct: HopQ1 (Hrp outer protein Q), type three effector of Pseudomonas syringae pv. phaseolicola 1448A, GenBank AAZ37975.1; also called phosphorylated HopQ1; recombinant HopQ1; source: phosphorylated in vitro by GST-AtCPK3, then ion-exchange and size-exclusion chromatography
T1 sequence: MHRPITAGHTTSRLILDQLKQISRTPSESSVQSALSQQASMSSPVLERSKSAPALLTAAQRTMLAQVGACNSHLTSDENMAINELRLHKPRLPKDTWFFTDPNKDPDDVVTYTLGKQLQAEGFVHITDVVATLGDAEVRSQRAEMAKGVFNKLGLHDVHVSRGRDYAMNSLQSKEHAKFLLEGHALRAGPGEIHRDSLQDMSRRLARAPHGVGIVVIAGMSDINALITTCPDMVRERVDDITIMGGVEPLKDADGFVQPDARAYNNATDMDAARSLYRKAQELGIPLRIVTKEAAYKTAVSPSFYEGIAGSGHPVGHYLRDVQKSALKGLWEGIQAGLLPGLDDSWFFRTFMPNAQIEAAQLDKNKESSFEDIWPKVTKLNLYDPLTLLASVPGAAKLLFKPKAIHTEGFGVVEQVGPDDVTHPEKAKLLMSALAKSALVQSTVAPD

B1: Nt14-3-3a protein tagged with Strep-tag II (natural protein, UniProt Q75ZE5 1-255, looked up)
chain: MASPREENVYLAKLAEQAERYEEMVEFMEKVVGAGDDELTVEERNLLSVAYKNVIGARRASWRIISSIEQKEESRGNEDHVASIKTYRSKIESELTSICNGILKLLDSKLIGTAATGDSKVFYLKMKGDYYRYLAEFKTGAERKEAAENTLSAYKSAQDIANVELAPTHPIRLGLALNFSVFYYEILNSPDRACNLAKQAFDEAIAELDTLGEESYKDSTLIMQLLRDNLTLWTSDMQDDGTDEIKEPSKAEEQQ
notes: 14-3-3a protein, Nt14-3-3a, GenBank BAD12168.1; also called 14-3-3 dimer; not shown: Strep-tag II, C-terminal, kept
For B1, the “stoichiometry N” value [1] was 2 and the “stoichiometry N” value [2] was 2 14-3-3a per HopQ1.

From PMC10944878, “Formation of HopQ1:14-3-3 complex in the host cytoplasm modulates nuclear import rate of Pseudomonas syringae effector in Nicotiana benthamiana cells” (Frontiers in Plant Science, 2024)
